Assay results as given in the DeepSol protein solubility set.

assay: soluble on expression in E. coli; label from the status in PepcDB or PDB records

For “MKLFLAEPFKSLWAGRDAFAEVEGLSGEVYRELEGRRTLRTEVDGRGYFVKIHRGIGWGEIAKNLATAKLPVLGAGKEWDAIERLHEVGVPTMTAVAYGERGSNPAAQHSFIVTEELAPTTSLEDVSLNWRTEPPEPRLKRAFIAEVARLVGMMHRAGVNHRDCYICHFLLHTDKPVTADDFRLSVIDLHRAQTRRAITPRWRNKDLAALYFSALDIGLTRRDKLRFLKDYFQLPLREILLKEAALLTWLDKKADKLYQRKVRYGDAL”, which “soluble on expression in E. coli” value is on record?
The value was “not soluble”.

With “MGSDKIHHHHHHMTFRALPSVDRLIRAVRSDGADMPHELVREAARAVLNEARTSISAGHPPPDLSTLVAAVQARLRADVTPSLRPLINATGVIIQTNLGRAPLSAAACAAMQEVGSGYSNLEYDLAQGERGSRHVHLESLLVQLTGAEAALVVNNNAAAVYLVLIAMAAGREVIVSRGQAVEIGGGFRIPDVLRASGALLIEVGTTNRTYARDYTAAITERTALILRVHTSNFRLIGFVHEPPLAELTAVAHTHGIPLLDDLGSGTLIDTRQFDLPPEPTVQESVAAGADLVTFSGDKLLGGPQAGIIVGRRELIARLRRHPLARALRVDKCTIAGLTATLHSYLRGTALREIPVWQLISTPLSALQARAERIAGALRAAGIPAQMVDCASAIGGGSLPGATQPSAGVALPPVGCGATVLAHRLRMANPPVITRIVDDQVLCDLRSVFPHEDTTLINVVREVWQ” as the sequence, how does the “soluble on expression in E. coli” value read?
Its value is “not soluble”.

For “MRRYLEHLMIKLSEKGVFLASNNEIIAEEHFTGEIKKEEAKKGTIAWSILSSHNTSGNMDKLKIKFDSLASHDITFVGIVQTAKASGMERFPLPYVLTNCHNSLCAVGGTINGDDHVFGLSAAQRYGGIFVPPHIAVIHQYMREMMAGGGKMILGSDSHTRYGALGTMAVGEGGGELVKQLLNDTWDIDYPGVVAVHLTGKPAPYVGPQDVALAIIGAVFKNGYVKNKVMEFVGPGVSALSTDFRNSVDVMTTETTCLSSVWQTDEEVHNWLALHGRGQDYCQLNPQPMAYYDGCISVDLSAIKPMIALPFHPSNVYEIDTLNQNLTDILREIEIESERVAHGKAKLSLLDKVENGRLKVQQGIIAGCSGGNYENVIAAANALRGQSCGNDTFSLAVYPSSQPVFMDLAKKGVVADLIGAGAIIRTAFCGPCFGAGDTPINNGLSIRHTTRNFPNREGSKPANGQMSAVALMDARSIAATAANGGYLTSASELDCWDNVPEYAFDVTPYKNRVYQGFVKGATQQPLIYGPNIKDWPELGALTDNIVLKVCSKILDEVTTTDELIPSGETSSYRSNPIGLAEFTLSRRDPGYVSRSKATAELENQRLAGNVSELTEVFARIKQIAGQEHIDPLQTEIGSMVYAVKPGDGSAREQAASCQRVIGGLANIAEEYATKRYRSNVINWGMLPLQMAEVPTFEVGDYIYIPGIKAALDNPGTTFKGYVIHEDAPVTEITLYMESLTAEEREIIKAGSLINFNKNRQM”, which “soluble on expression in E. coli” value is on record?
Its value is “not soluble”.

Which “soluble on expression in E. coli” value does the source give for “MGSDKIHHHHHHCSDNDSDLTIYIPDAGTAVKANFYIEDEPYVQTFNVAVTPETYPQLTEYGLPNDAVVHLQADPGKVDEYNAKNGTEYELLPEAAYDLTEEVLVKAGTPKSEEAVITVHAKGNIEAFKEYLLPVSITSVEGAVADHCCQTIYFIFRGSMDASNMELLDRTGWEALSASSEEPKEGDWGHSGLKEACLDGDLNTFWGTDWSTQHPQPPHWIVIDLKKTTHIQGFACQAREEGYDGPKEVTVEVSDDNATWTVAAKFKDIPAQGEFRSFLPAAVDGRYLKVTITAVNGGPHVTISELNLF” here?
The value was “not soluble”.

Which “soluble on expression in E. coli” value does the source give for “MSQFEKQKEQGNSLFKQGLYREAVHCYDQLITAQPQNPVGYSNKAMALIKLGEYTQAIQMCQQGLRYTSTAEHVAIRSKLQYRLELAQGAVGSVQIPVVEVDELPEGYDRS” here?
Its value is “not soluble”.

With “NHINPVNPAEPALYLPTQYDVREFAEKTKNETVYVFTSVGEYWPLAWYLRDHRAYFITTGVEGRSFISGNYIVVNATNDMRLDKTNLEFVETMVVRCWTFWTTPELQRIPAFLAFREPLTDVSCMNFSVYRAI” as the sequence, how does the “soluble on expression in E. coli” value read?
Its value is “not soluble”.

With “MHTDMKSVGTVSMQEAPLLEIAVVGHTNTGKTSLIRTLLRSTSFGRVDDAAGTTRHVERATIFAGSEAVLNLHDTPGIEDVYALQDKLHLIATRNKRSTQSELLEKFVAATPLNDPLEQEAKVIRQVLRSDVLLYVIDVREPVLEKYLIEIEILGKAMKPMIPIFNFTAAHRAELDLWRKKLAAFNIYASLELDTVAFAFEAEKRLYQKIQSLLEVHYTRLQRLIDHRARVWNQLCMSAARRIAGLIITTACYREHTGDERSSAGDTSSAAIRLQDFIRQAEQHCLVDLLKMFNFTDKDIELQKIPVQNGYWQLDLFAPGVLKAYGLDIGSAALKGAAAGAGIDLMTGGLSLGVASMLGALAGTGWSTFRRYGKEIQAKIRGTRWLCVDDSTLQLLYLRQRQLLDKLMNRGHAACHTDQVSQQPERGELPDGWQQIIDMLRQNPAWGRSPGLHTDDTRQYSSIEKRLIDALLKNPAL” as the sequence, how does the “soluble on expression in E. coli” value read?
The value was “not soluble”.

For “MPDSTRQPSAPVRDRLQQYGLSETEAETYLAVVEKGPATARTVAETAGVSKSYVYDICDSLAVDGFVSVDDHRTPTVIRATPPSEAFSALKRELDTLEAAVQTRYEDTAAENNTFEVVKSRPTIVKRLEQHIEAADCEVILQIPARRLPDIRDPLRRARERGILVLLTLSSYDRATMELDLKEIANAVRIGLDGAPSLLATDQQRGFVSPSTMLSWDHDETNAITFTQEAVAAVLVGSYLGNYWPIGEEVLVSRPPSLPARYDMFRPVVFTTTLALRAGESVVADLYARPTGSDDDFEVISGEVVDVRQNLVAPHNSDFGFENSLVVDTGDSRITVGGYGAFLEDYEVKHTTLRRA”, which “soluble on expression in E. coli” value is on record?
The value was “not soluble”.

With “MGSDKIHHHHHHMKLMRIQEMEEYILSHGTVSLDELCQVFNVSKNTVRRDINKLTEKGAIEKVYGGVTSIEKTALVPFENRTIQHQDEKTKIAHYASRFIEDHDLVFIDSGTTTKSILDTLDPAKNVTILTNSLDIINAASALKNINLIIIGNNYKRKTRSFVGMDDPAMLDKYNINKAFMSATGTTLTHGLTNSDLLEYEIKKRISEKAKEVYLLADHSKFGKSTLLTYAPFDRLHCIVTSQPLDDEYTQYCNEHQIGIHLA” as the sequence, how does the “soluble on expression in E. coli” value read?
Its value is “not soluble”.

For “MGHHHHHHSHMADTLAILNEFLLERSKREAEEENQIANKTGKDAQFEEDWQLSQFWYSTETKHALRDVVRKLLAERTKDSGDFSIALLSCPSLYKDIREIHDTVHIFEFDKRFEAYGTDFVHYDLNCVGSNPDYLKEHHQQYDLIVADPPF”, which “soluble on expression in E. coli” value is on record?
The value was “soluble”.

Which “soluble on expression in E. coli” value does the source give for “MGSDKIHHHHHHMQIKLSTDGCTDFMFILENTVNHGIIMQPYHSYFVGPMDICSALITLSGTINTFGVRFRPCGLSRFMKISLSELTNIRLSVNDLNTIFSDSFAERLFEEQGIQCKINLIERYLKKHLYKSNHTMDTQISYAVNQINAHEGKISISHLMDEVNLCQRHFERKFKLHTGFTPQKYNSIVKFKNAIKILRNESFDNLLSVAVKAGYYDASHLSREVKKLSGSTPNFFLSLPPDNETTIIYTK” here?
Its value is “not soluble”.

With “MVLAVKVQIKEGEKVRRKLIELGALNREYKIKREEGFLLIPVKFPVEGFEVVEVELERVETRPNSYKDVVNIPRELRKFLPSSFDIIGNIAIIEIPSELQNYSNEIGGAIIRVHKSVKAVYMKGGSVEGEYRVRNLIHIAGEKITETIHRENGVRLKLDITKVYFSPRLATERMRVFKMAREGEIVFDMFAGVGPFSILLAKKARMVFACDINPWAIKYLEENIKLNKVKNIIPILSDVTKVCVKADRIIMNLPKYASRFLEHAMRCVNNGGIIHYYGFGPEKDPYGWHVKRINEVAGRLGVKVEILGKRIIRNYAPRQYNIAIDFRVSF” as the sequence, how does the “soluble on expression in E. coli” value read?
The value was “soluble”.

Which “soluble on expression in E. coli” value does the source give for “MTSPDEHSPEKKDSENEVVPAGPKQKAKCLEKETKSPPKPSDLSKAERKEKNNKTARRDVKSSRGNVKTMKPSVVKVEERSSRSKKSIREGKLKNFSLPKDEPEITALQLDAELTKSARLMEEYKIALEQIITTLVSMMRRGNGTVDMENIVSDKGQTAAEKLNKEVQLTQNYWKTDTKLQPAMNDAIAKNTVVLAAAERNLQTQGPQHLKRVKKFLYGQYPKYVDMKRDLLKIVKQQKPEAQSVRDESAQAISKFIKEKYVNAKIYASRRNSKCFRRVELFPSYIRFYLASNR” here?
Its value is “soluble”.

Which “soluble on expression in E. coli” value does the source give for DHYACVSSGGQCLYSACPIFTKIQGTCYRGKAKCCK here?
The value was “soluble”.

Which “soluble on expression in E. coli” value does the source give for “MSLITQRSSMIGVVTAGFENPLRARLLSDLMAVLGQRAFTPLVTNADDPQQLRQALERLLSYRVAGLVMTSASPPLSVARQYLAHRIPVVMINREANLAGADVVVSDNAAGAAEAAQRLVHAGARRLAFVGPHTASFSARSRADAFAHALQRGNMSGATLASVIDTASDTHACGLDAAQQLFAAGHRPDGVFCSSDLLALGVIDAARAAFGLRVPDDVRVIGFDDIPAAAYHAYRLTTLRQDTQGLAHAAVDLLADRISAFDGASRTRVVPVTHVVRHSCAEGHHHHHH” here?
Its value is “soluble”.

For “GPEAERAEMLAWFDRINAERRRAGMVAVLTRRCNLACPYCFEGGQAPEGDMSEETADLLAAMIEREYLAKGWRVDMDFYGGEPLLRPDLIRRIAEPLRAAGGGLFHGNMVSNGSLLNRAVMTDLTALGIESVKVTLDGPPQVHDRYRPYGGGAGSFHDILRGMGEVVDLVKIHVGGNFTRETWREYPALLDLLLAEGFTPDRLGTVRFTP”, which “soluble on expression in E. coli” value is on record?
The value was “not soluble”.

Which “soluble on expression in E. coli” value does the source give for “LEYLKNNCKVIIVDMHAEATSEKCALAWYLDGRVSCVLGTHTHVQTADERILPFGTAFISDVGMTGPYDGIIGVNREIVIQKFLTHMPVRFEVATGRVQFNAVYLEIDEKTGKTTGIERIYEILEV” here?
The value was “not soluble”.

Which “soluble on expression in E. coli” value does the source give for “MAHHHHHHMNLKTKLQKRRDEVNTCLCIGLDPDEADIKSFMQSEKQNGYQSIKKNLSNHGSSSQGGLFTPQVGGTMLLAENPPKEVQEKDEFFYFFNHFCFYIINETKQYALSYKMNFAFYLPYGSLGVDVLKNVFDYLHYLDVPTILDIKMNDIGNTVKHYSKFIFHYLRSDSCTANIYMGTHMLRDICLDEECKRHYSTFVLIKTTNPDSHIFQNRLSLDGKEAYVVIADEAQKMAKQLHLEENGEFVGFVVGANCYDEMKKIRELFPDCYILAPGVGAQKGDLRKTLCNGYSKNYERLLINVGRAITKSGNPQQAAREYYHQIKEILAELRE” here?
The value was “soluble”.

With “MGHHHHHHSHMYSLNQEIKAFSRNNLRKQCTRVTTLTGKKIIETWKDARIHVVEEVEPSSGGGCGYVQDLSSDLQVGVIKPWLLLGSQDAAHDLDTLKKNKVTHILNVAYGVENAFLSDFTYKSISILDLPETNILSYFPECFEFIEEAKRKDGVVLVHCNAGVSRAAAIVIGFLMNSEQTSFTSAFSLVKNARPSICPNSGFMEQLRTYQEGKESNKCDRIQENSS” as the sequence, how does the “soluble on expression in E. coli” value read?
Its value is “not soluble”.

For “VVKRSRATRLSPSIWSGWESPQCRSIRARLLLPRGRSRPPNADCCWNQLAVTPDTRMPASSAAGRDAAAYDAWYDSPTGRPILATEVAALRPLIEVFAQPRLEIGVGTGRFADLLGVRFGLDPSRDALMFARRRGVLVANAVGEAVPFVSRHFGAVLMAFTLCFVTDPAAIFRETRRLLADGGGLVIGFLPRGTPWADLYALRAARGQPGYRDARFYTAAELEQLLADSGFRVIARRCTLHQPPGLARYDIEAAHDGIQAGAGFVAISAVDQAHEPKDDHPLESE”, which “soluble on expression in E. coli” value is on record?
Its value is “not soluble”.

Which “soluble on expression in E. coli” value does the source give for “MGSDKIHHHHHHMEKRLDYITDLMALGPTANARTIQRRQTAHRLAIAEAWQVKPGEKILEIGCGQGDLSAVLADQVGSSGHVTGIDIASPDYGAPLTLGQAWNHLLAGPLGDRLTVHFNTNLSDDLGPIADQHFDRVVLAHSLWYFASANALALLFKNMAAVCDHVDVAEWSMQPTALDQIGHLQAAMIQGLLYAIAPSDVANIRTLITPDTLAQIAHDNTWTYTAGTIVEDPTLDDAHWEIATTNALLTELKLSTDLRDRVKPLLEAMSHNGTASLATFTGRITF” here?
The value was “not soluble”.

Which “soluble on expression in E. coli” value does the source give for “MTGEGYKQAIVVRRDLGMGRGKAAAQAAHASCEAVFLILESGRPEWRRWLEMWRLQGQAKVVLRVESLAELQEVYSKAVEEGLPASFVRDAGKTQLEPGTPTAAAVGPAPSRLVDRITGGLKLF” here?
The value was “not soluble”.
